Test results as given in PMC11044841.

Key:
IMB1 = assay: mass spectrometry of G3BP1-GFP interactome; details: HEK293T G3BP1/2 DKO cells; read off a plot
NU205 = assay: mass spectrometry of G3BP1-GFP interactome; details: HEK293T G3BP1/2 DKO cells; read off a plot
NUFP2 = assay: mass spectrometry of G3BP1-GFP interactome; details: HEK293T G3BP1/2 DKO cells; read off a plot
NUP93 = assay: mass spectrometry of G3BP1-GFP interactome; details: HEK293T G3BP1/2 DKO cells; read off a plot
P121A = assay: mass spectrometry of G3BP1-GFP interactome; details: HEK293T G3BP1/2 DKO cells; read off a plot
P121C = assay: mass spectrometry of G3BP1-GFP interactome; details: HEK293T G3BP1/2 DKO cells; read off a plot
PABP1 = assay: mass spectrometry of G3BP1-GFP interactome; details: HEK293T G3BP1/2 DKO cells; read off a plot
PABP4 = assay: mass spectrometry of G3BP1-GFP interactome; details: HEK293T G3BP1/2 DKO cells; read off a plot
RBP2 = assay: mass spectrometry of G3BP1-GFP interactome; details: HEK293T G3BP1/2 DKO cells; read off a plot
RS3 = assay: mass spectrometry of G3BP1-GFP interactome; details: HEK293T G3BP1/2 DKO cells; read off a plot
DDX6 = assay: mass spectrometry of G3BP1-GFP interactome; details: HEK293T G3BP1/2 DKO cells; read off a plot
PRC2C = assay: mass spectrometry of G3BP1-GFP interactome; details: HEK293T G3BP1/2 DKO cells; read off a plot
TRAP1 = assay: mass spectrometry of G3BP1-GFP interactome; details: HEK293T G3BP1/2 DKO cells; read off a plot
[1] = biological target: GST-NTF2L (GST-tagged NTF2-like domain of G3BP1) (human); assay: SPR

N-WT (1–25) peptide, sequence (P0DTC9 1-25): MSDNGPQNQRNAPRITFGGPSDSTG

**Q.** How did the other: Log2(fold change) (IMB1) turn out when G3BP1-EGFP (from UniProt Q13283) F33W was run?
**A.** 6.7

**Q.** And the other: Log2(fold change) (NU205)?
**A.** 8.7

**Q.** What about the other: Log2(fold change) (NUFP2) of the same substance?
**A.** -9.7

**Q.** And the other: Log2(fold change) (NUP93)?
**A.** 8.4

**Q.** And the other: Log2(fold change) (P121A)?
**A.** 2.9

**Q.** What about the other: Log2(fold change) (P121C) of the same substance?
**A.** 2.5

**Q.** What about the other: Log2(fold change) (PABP1) of the same substance?
**A.** -4.1

**Q.** And the other: Log2(fold change) (PABP4)?
**A.** -8.9

**Q.** What about the other: Log2(fold change) (RBP2) of the same substance?
**A.** 8.9

**Q.** And the other: Log2(fold change) (RS3)?
**A.** -6.4

**Q.** For G3BP1-EGFP (from UniProt Q13283) F112A, which other: Log2(fold change) (DDX6) is on record?
**A.** -2.7

**Q.** What about the other: Log2(fold change) (PRC2C) of the same substance?
**A.** 5.8

**Q.** With G3BP1-EGFP (from UniProt Q13283) F124W as the substance, how does the other: Log2(fold change) (IMB1) read?
**A.** 6.2

**Q.** What about the other: Log2(fold change) (TRAP1) of the same substance?
**A.** 6

**Q.** Which other: Log2(fold change) (DDX6) does the source give for G3BP1-EGFP (from UniProt Q13283) V11A here?
**A.** -2.3

**Q.** For “N-WT (1–25) peptide (from UniProt P0DTC9 1-25)”, which Kd [1] is on record?
**A.** 1.14 µM
